In a protein production outcome set (Wang et al. 2014):

Experiment: label from the status in PepcDB records

Question: For “MTDDRYTVISADCHAGADLLDYRPYLAKRHHDAFDAWAATYVNPYEDLLADTADRNWNSERRLAELAADGIVAEVVFPNTIPPFFPSASLMAPAPTAAEFEQRWAGLRAHNRWLADFCAAAPGRRAGVFQILLNDVEEAVKEISWAAGAGLRGGLLLPGTPPGSGLPELYSKAYDPIWAVCEELDVPVNHHAGSASPPLGDEPAARAVFMVETTWFSHRALWHLVFGGAFRRHPGLRLVLTEQGSGWIPGVLDMLDYYHGRLVAAGPKSATAEAKFGAGLDRAMGKGPSEVWRDNCFVGASFMRPHEVPLRDRIGLDKIMWGSDYPHDEGTYPYSREGLRIAYAGLPRTEIAAMAGGNAARVYGFDLSLLDPIAAKVGPTVAELARPLEEPPADATSPVFARGGSVRVW”, which protein production is on record?
Answer: failed

Question: For “MTDFPTSLTAPKKGCEGCTGSPELGFSFDYAYQPIVNLHDQSIFAHEALVRGPNGEGAMSVLNQVTDQNRYRFDQKCRTTAIAGAAKLGMTERLSINFLPNAVYRPELCIRSTLEAAKQHDFPIERLIFETIESEHVDNNNHLSNILREYREFGFMTAIDDFGAGYSGLTLLADFQPDLIKLDMNLVRDIHRDRARQAIVRGVVTMCKDLGIKLIAEGIEHIEERDFLADCGISLMQGYLFAKPAFKALAQIAPEAWQKP”, which protein production is on record?
Answer: not failed

Question: With “MTDIPAPAPAAEFWEARYRDTGRVWSGRPNELLVQEAGGLAPGTALDLGCGEGADAVWLASRGWRVTGVDISATALERAAGHADGAGVGDRVLWERHELGPSFPEGSFDLVSAHYLQSPVALDQQAVLRAAARAVAPGGTLLVVMHAGWPSWQTEPPFDAAFPTLDGVLAELALPEGEWSVETRRTARRPSVAPDGTEGFREDHVWRLKRAVFVE” as the sequence, how does the protein production read?
Answer: failed

Question: Which protein production does the source give for “MTDKRGNNGKTGLLFPAIFTIFVSIYAAGNYYVGLRFFQSIQSLIEPYSLFYWSGYAFLVISLFAGRLGKRFYPGYVNDLFAVTGNYWVGAVYYSLLIWAGIDVLHFLTSLIFPATRIIKYPSFYFGLAVLLLVFLLLLYGTWNARHPRIVHYDITIKKSVPDLPELHAVMVSDIHLGLVVDKDRLKEMVNRINELDPDVVFLAGDTIDEDVRLFASNKMPEILKKLKSRYGVYAVLGNHEYIGGNNELAVEYLQQAGIHVLVDKCIKVNNHFYVAGRDDRVAGRMNGKKRLELSRLVDGIDHTLPIILLDHQPINLKEGQLNGIDLQLSGHTHAGQFFPNTLISKRVFENSWGYLKKGECQIIVSAGFGTWGPPIRIGSNSEITDIKISFV” here?
Answer: failed

Question: With “MTDLEHAVESNRRAWDASADSHLRGGGWQELSLAVQETGFSCLDETLAGVLRNLDLAGKAAVQVGCNNGREVLSLYAFGVARAVGIDQSAAFLAQARQLAERSPHQPRFVEANAYELPAELNGQFDLLLITIGVLNWMPDIARFFASVSGLLKPGGQLAIYETHPFLEMLEPESERPFELRNDYFTDTPHVSREAIVYEGSGSDTGIASYWYVHPLGDILGGLLGAGLRLSHFKEYPHSNREELYDLYEDGPLAIPMCYTLVAVKA” as the sequence, how does the protein production read?
Answer: failed

Question: Which protein production does the source give for “MTDLIYNDPDFVQFYDIENQDGRADFDYCVRLARDGGSVLDLGCGTGQLAAEMAQGCNVTGVDPASAMLDVARRRTGGDKVDWVVADARTVRLGRRFDLVLLTGHVFQVFLTDEDQRAVLRTIAEHLGPGGRFIFDTRNPAVEAWLEWTPQRSERMVEHPSLGTVRAWYDADWDAASAVVTYSTFYEIPGGRPILGAESKIAFPKKQDLAGMLDDAGLLVEQWLGDWQGEPYADTSPEIIPIGRLR” here?
Answer: failed

Question: For “MTDNSQFHAASALVQAAHTVSVVGHLRPDADAIGSVAATVAALQQLGKDAVGAIGQLDSMPENLYTIPGASNIKFGDSLPESDLIIVVDCGSIERTGAFESIIVNNPDKVLVVDHHATNPGFGAVNLIDVEAESTTTILYDWFDAMSVQITPDIAHGLYAGLLTDTGCFRWGRPVMHDMAKELMEFGLDIRAISSALLDQTSVDDLRLVGQIVSRIELREAGPYTLAVLVADFDTINGRSRAVVEGLIEMVRAVEGADFGAVFKEYERGVYTVSLRSSNLSVASLAVHLGGGGHIPAAGYTARGTEIEALDTLIEATVTLGESLRSSAHVDVLEHHHHHH”, which protein production is on record?
Answer: not failed

Question: For “MTDPADRPLIERIRACRLCADRFAATHTAHEPRPVVWFRPGARLLIAGQAPGARVHASGRPFTDPSGDRLRDWLGIGEETFYDRSRVAVVPMAFCFPGYNSQGADLPPPPVCGKTWHNQVMGELGEMPLSVLVGGHALKYHLGARSPVTETVAAWRDHAPRVFALPHPSWRNTGWLRKNPWFEAELLPVLRARVKEVLNEPDRSANPD”, which protein production is on record?
Answer: failed

Question: For “MTDPEKLTALKKAYAETILNTAKEAAARVMITERKARGYQQELASVRDEALRACLRLKQIYDSKVKEAEMISLQKQQKIEELEAQLGEAEDIVGELRTELRESRYLLEKLANGCQTNLSKEEKAPNEAVSLEVREDSSNHERSVVASVIKPHMSDRDLSINRCSYKENKDPCLYTLPSILSRCREAEVVERNTINGDCADVESLTEARKEEAKENDIELSTTPLSPSEKQCIKFSYKRKHNKDGSNSPEGGGSSSQDDDDDDESRSRRHKTGEKDNAYLDSFTSTEPSRDSRRVAQVARQVSESR”, which protein production is on record?
Answer: failed

Question: Which protein production does the source give for “MTDPLIPVDTYLVDSLPEVWFGAVVFALGMYIVLDGFDFGIGMLYATRTDEHERETFLAAFGPVWDANEVWIVAFGTMLLAAFPRVYSRLLADNYLLALGFVVALVFRGLGPELREQREDERWKRYTDYAFVGGSVFAPLLLGMLAGRWLFAGATLPVVLTGVGLVAVSIVTGAAFLAAKTDSGLASELRSYGVGATVAYLGGVVVLLGTVVATDAGGAASAVLSLPVAAVVALSIVAGLGGSVLARRGRYRAWLASALALPTLLTLLVAVLLYPTVYPPTGLLVREAVVSPLALNLVTVLGFPVLLLVLWYFKFLYGVFSGPIEGEGYGG” here?
Answer: failed

Question: For “MTDQAVDTGGSQLPGNEQRPAAAPAPTVSQFLGRTRELKELRADIERAGLDTLSGRKAPRARVLLIAGRPGSGRTALAEELVRQVADRYRDGVLRARLTEPDGTPVPTERTARELLAALEVATPPGAAEDDLTEALREALADRRTLLLLDDVAAAEQVDALLPGTPDCLVVAVSEGPLTGIADVRPCTLGGLDTKSALELLGRLTGAVRITVDPRAAEGLVEECAGQPLALVLAGSWLAARPQAAVADLAKQLRSEGDEGPPTARLFRLAYAGLPATAQRILRLLSLAPAGLVDPHTASALAGCSVSAAHTTLDDFAALGLVRLLESPLPQYEVPGSLLPLLRALAESRERPAELQLARARMLERTVRLLQSCRAITETDSIEAREKLLGMPRTLRFPNPRAAADWLRVRQPALLAAARSAVADGELDTLARRLMSQLVRAMVAHFGTQASAPELYGIHRLVLDVAERRNLPREQAAALLNLADLDTRTGRTTEALARYRAALDAGREANDPYATGRAMESVGGAHQELGDYDRAADWYGRALAQRLARDERVDAARLYGRIATAHTYAGRYGEALRNWRSAVAGHRKNGDVAAQARALSELARVQEYAGRPEESLRTCQEAVEWARRADDVRLQAALQLRLADTLEHLGDPAAAKLHRGAAERMLGEELLESDSGAEQAPNACEIRSASSKD”, which protein production is on record?
Answer: failed

Question: For “MTDSKYISIKGARVNNLKNIDVNIPRNKLVVITGLSGSGKSSLAFDTLYAEGQRRYVESLSSYARQFLGRMSKPECDFIKGIPPAIAIEQKVNSRNPRSTVGTSTEIYEYLRLLYARVGKTYSPVSGEEVKKHSIEDIVNCMLSYPEGTRYTVLTQIYLHDGRTLEQQLEIDRKQGFNRLEVNGEMVRIDEYAAGKEDVVYLLVDRMTAAKSKDAISRLTDSAETAMYEGDGMCMLRFYQPDGTTRLHTFSTKFEADGMTFEEPNDQMFSFNSPIGACPVCEGFGKVIGIDEHLVVPNRSLSVYDGAIVCWRGEKMGEWREELIHNAEKFNFPIFTPYYELTDEQRRVLWEGNQYFHGINDFFKMLEENQYKIQYRVMLARYRGKTLCPKCHGTRLKPEAGYVRVGGKNISELVDLPITELQKFFDSLTLNEHDQAVARRILTEINSRIRFLIDVGLGYLTLNRLSNSLSGGESQRINLATSLGSSLVGSLYILDEPSIGLHSRDTDRLVHVLRQLQQLGNTVVVVEHDEEIIRAADYIIDIGPNAGRLGGQVVYEGDMKDLKKGSNSYTVKYLLGEETIPVPEHRRPWNNYIEIKGARENNLKGVDARFPLNVMTVVTGVSGSGKSTLVRDIFYRALKRELDECSERPGEFVSIEGDLRNLRNVEFVDQNPIGKSSRSNPVTYIKAYDEIRKLWADQPLAKQMGYTAGHFSFNNEGGRCEECKGDGTITVEMQFMADLVLECESCHGKRFKADTLEVKFQDKNIYDILEMTVNQAIEFFTEHGQKKVVKKLIPLQDVGLGYIKLGQSSSTLSGGENQRVKLAYYLSQEKADPTLFIFDEPTTGLHFHDIRKLLDAFDALIRRGHSIVIIEHNMDVIKCADYVIDLGPEGGDKGGNIVATGTPEEVAACAASYTGQFLQEKLNHL”, which protein production is on record?
Answer: failed

Question: Which protein production does the source give for “MTDTHTCLTAKDFTSNQEPKWCPGCGDFMVLQQLKNAMAELCLKTEEVVVVSGIGCSSRLPYYINTYGVHGIHGRAMAMASGLKVARPDLSVWVGTGDGDALSIGGNHYIHTVRRNLDINVVLFNNEIYGLTKGQYSPTSKVGLRTVTSPTGVVDYPINTIALTLGAGGTFVARVMDRDGKLMKEIFKRAHNHKGTSIVEIYQNCPIFNDGAFRAFSDKERKDDTTLYLEQGQPLVFGANGSKGIYLDGFKPTVIDLEKSGVSKDDLWIHDENDLIKANILSRFFDDPNSTEEFLPRPFGIFYVEDRFTYEQALSAQIDKAQEKGEGTLEELLAGNSTWTIN” here?
Answer: failed

Question: For “MTDTTAEPSRPSGRLWAYLWQLHAETKAYLTLDAPAIASNIDSLSESEQQLAREVFPDGGQSTADSDGGSATDAGSRGGDDSSPFDVGGSYSLRQKIGLVLGPLLFAALLFSPTPDGLPAEGQAVAAVTAWVAVWWMSEAIPIPAASLLPIVLFPLAGALPVEPTATSYGHPLVFLFMGGFFLAMAMQRWGLHRRIALRTIKLVGTEPSRLILGFMLATAILSMWVSNSATVMMMVPIALAVIYQTADLIDDSDVDIDTGVGEFSFGIALMLCIAYGASVGGVATLIGTPPNILFAGQAEALFGQSVSFAEWMLYGVPIAALGLVTVYIYVTRIAMTPQFDSLPAGTETIDRELAELGSMSQQEKLVAVVFVGMAAAWIGASLIEPVLDITPPDDADTIVAIGGALVLFTFPTTGENGDQTFLLDWSSAVEIPWGVILLFGGGLAIAAGFSETGLAVWIGEQLQLLEGVQMAAILLAVVVMTIFLTEVTSNTATTAMLMPILGAVAIGISVHPFGLMIAGATAASFAFMLPVATPPNAIVFGSGYITLPQMARVGVGLNVIGIVLITLLALVWLPIAWGIELATLPAEFADAFDS”, which protein production is on record?
Answer: failed

Question: For “MTDVFKDMAFQLKTERLDLNMWEESDAVWLRKLIGERGVEMPTIESVRSSLIEMRKKAIENGISLLTIRRRDEGDFIGYCGLIIGRATLEEPEIAYELFKSAHRKGYATEAASAVLEAAIATGRHRLWSTVGAWNTASFRVLEKLGFHRHHSTYGERGEIVWNVRDL”, which protein production is on record?
Answer: failed

Question: Which protein production does the source give for “MTEAATFHLEMTRQIRAPRERVFDAFTDQAALAAWHCPRGMRVLEASADARVGGRYRLVMGSRDGSQHMVGGEYQKIDRANFLAYTWQWEGGELPEGTRTLIEVTLTDKDGGTLLHMRHSGFPDTATRDAHTSGWQSVFNRLSDYVDAEGSAGTVTVYGDGRSTYVRTVRMALAEKGIAYKLDPLTPRDPELLKHNPFGRIPAFTDGPLEFFETRAILSYIEEAFDGPSLISQAGPTARARCEQWISLINCHAYDAMVRRYVLQYVFPSGENGQPDRKTIDAALPDIAKQLDALEHAYGGRDFLAGNTLTMADLFFAPIVEYLGRFPESAAMLESRPNIRRAHAAMRARPSYAATQPNFG” here?
Answer: failed
